The values below come from the supplement of paper PMC5998384.

The subject of data set [1] is HeLa Kyoto. In words: solubility change mitosis vs G1/S (difference of NP-40 vs SDS log2 ratios) (log2 ratio difference); higher = more soluble in mitosis.
Data set [2] relates to HeLa Kyoto. Briefly: solubility in G1/S (NP-40 vs SDS abundance) (log2 ratio); higher = more soluble. The conditions noted are these: cell cycle stage: G1/S.
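Wherever solubility change mitosis vs G1/S (difference of NP-40 vs SDS log2 ratios) is given: synchronized HeLa Kyoto cells (double thymidine block for G1/S, nocodazole release for mitosis), protein amounts in NP-40 versus SDS lysates quantified by mass spectrometry, three biological replicates.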
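Wherever solubility in G1/S (NP-40 vs SDS abundance) is given: HeLa Kyoto cells arrested at G1/S by double thymidine block, proteins quantified by TMT10plex mass spectrometry in mild NP-40 versus SDS extracts, three biological replicates.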

Take “MKEMSANTVLDSQRQQKHYGITSPISLASPKEIDHIYTQKLIDAMKPFGVFEDEEELNHRLVVLGKLNNLVKEWISDVSESKNLPPSVVATVGGKIFTFGSYRLGVHTKGADIDALCVAPRHVERSDFFQSFFEKLKHQDGIRNLRAVEDAFVPVIKFEFDGIEIDLVFARLAIQTISDNLDLRDDSRLRSLDIRCIRSLNGCRVTDEILHLVPNKETFRLTLRAVKLWAKRRGIYSNMLGFLGGVSWAMLVARTCQLYPNAAASTLVHKFFLVFSKWEWPNPVLLKQPEESNLNLPVWDPRVNPSDRYHLMPIITPAYPQQNSTYNVSTSTRTVMVEEFKQGLAVTDEILQGKSDWSKLLEPPNFFQKYRHYIVLTASASTEENHLEWVGLVESKIRVLVGNLERNEFITLAHVNPQSFPGNKEHHKDNNYVSMWFLGIIFRRVENAESVNIDLTYDIQSFTDTVYRQANNINMLKEGMKIEATHVKKKQLHHYLPAEILQKKKKQSLSDVNRSSGGLQSKRLSLDSSCLDSSRDTDNGTPFNSPASKSDSPSVGETERNSAEPAAVIVEKPLSVPPAQGLSIPVIGAKVDSTVKTVSPPTVCTIPTVVGRNVIPRITTPHNPAQGQPHLNGMSNITKTVTPKRSHSPSIDGTPKRLKDVEKFIRLESTFKDPRTAEERKRKSVDAIGGESMPIPTIDTSRKKRLPSKELPDSSSPVPANNIRVIKNSIRLTLNR [PAPOLG]”: the “solubility change mitosis (log2)” value in the data set on HeLa Kyoto [1] was -0.0762. The “solubility in G1/S (log2)” value in the data set on HeLa Kyoto [2] was -0.0339.

In the case of “MKFAYRFSNLLGTVYRRGNLNFTCDGNSVISPVGNRVTVFDLKNNKSDTLPLATRYNVKCVGLSPDGRLAIIVDEGGDALLVSLVCRSVLHHFHFKGSVHSVSFSPDGRKFVVTKGNIAQMYHAPGKKREFNAFVLDKTYFGPYDETTCIDWTDDSRCFVVGSKDMSTWVFGAERWDNLIYYALGGHKDAIVACFFESNSLDLYSLSQDGVLCMWQCDTPPEGLRLKPPAGWKADLLQREEEEEEEEDQEGDRETTIRGKATPAEEEKTGKVKYSRLAKYFFNKEGDFNNLTAAAFHKKSHLLVTGFASGIFHLHELPEFNLIHSLSISDQSIASVAINSSGDWIAFGCSGLGQLLVWEWQSESYVLKQQGHFNSMVALAYSPDGQYIVTGGDDGKVKVWNTLSGFCFVTFTEHSSGVTGVTFTATGYVVVTSSMDGTVRAFDLHRYRNFRTFTSPRPTQFSCVAVDASGEIVSAGAQDSFEIFVWSMQTGRLLDVLSGHEGPISGLCFNPMKSVLASASWDKTVRLWDMFDSWRTKETLALTSDALAVTFRPDGAELAVATLNSQITFWDPENAVQTGSIEGRHDLKTGRKELDKITAKHAAKGKAFTALCYSADGHSILAGGMSKFVCIYHVREQILMKRFEISCNLSLDAMEEFLNRRKMTEFGNLALIDQDAGQEDGVAIPLPGVRKGDMSSRHFKPEIRVTSLRFSPTGRCWAATTTEGLLIYSLDTRVLFDPFELDTSVTPGRVREALRQQDFTRAILMALRLNESKLVQEALEAVPRGEIEVVTSSLPELYVEKVLEFLASSFEVSRHLEFYLLWTHKLLMLHGQKLKSRAGTLLPVIQFLQKSIQRHLDDLSKLCSWNHYNMQYALAVSKQRGTKRSLDPLGSEEEAEASEDDSLHLLGGGGRDSEEEMLA [PWP2]”, in the data set with HeLa Kyoto [1], the “solubility change mitosis (log2)” value is 0.632. Further, in the data set on HeLa Kyoto [2], the “solubility in G1/S (log2)” value was -1.72.

As for “MKGGNADSWQREKLASMESPEEPGASMDENYFVNYTFKDRSHSGRVAQGIMKLCLEEELFADVTISVEGREFQLHRLVLSAQSCFFRSMFTSNLKEAHNRVIVLQDVSESVFQLLVDYIYHGTVKLRAEELQEIYEVSDMYQLTSLFEECSRFLARTVQVGNCLQVMWLADRHSDPELYTAAKHCAKTHLAQLQNTEEFLHLPHRLLTDIISDGVPCSQNPTEAIEAWINFNKEEREAFAESLRTSLKEIGENVHIYLIGKESSRTHSLAVSLHCAEDDSISVSGQNSLCHQITAACKHGGDLYVVGGSIPRRMWKCNNATVDWEWCAPLPRDRLQHTLVSVPGKDAIYSLGGKTLQDTLSNAVIYYRVGDNVWTETTQLEVAVSGAAGANLNGIIYLLGGEENDLDFFTKPSRLIQCFDTETDKCHVKPYVLPFAGRMHAAVHKDLVFIVAEGDSLVCYNPLLDSFTRLCLPEAWSSAPSLWKIASCNGSIYVFRDRYKKGDANTYKLDPATSAVTVTRGIKVLLTNLQFVLA [KBTBD4]”, the “solubility change mitosis (log2)” value with HeLa Kyoto [1] was -0.161. Further, in the data set with HeLa Kyoto [2], the “solubility in G1/S (log2)” value was -0.0904.

On to “MKLHCEVEVISRHLPALGLRNRGKGVRAVLSLCQQTSRSQPPVRAFLLISTLKDKRGTRYELRENIEQFFTKFVDEGKATVRLKEPPVDICLSKAISSSLKGFLSAMRLAHRGCNVDTPVSTLTPVKTSEFENFKTKMVITSKKDYPLSKNFPYSLEHLQTSYCGLVRVDMRMLCLKSLRKLDLSHNHIKKLPATIGDLIHLQELNLNDNHLESFSVALCHSTLQKSLRSLDLSKNKIKALPVQFCQLQELKNLKLDDNELIQFPCKIGQLINLRFLSAARNKLPFLPSEFRNLSLEYLDLFGNTFEQPKVLPVIKLQAPLTLLESSARTILHNRIPYGSHIIPFHLCQDLDTAKICVCGRFCLNSFIQGTTTMNLHSVAHTVVLVDNLGGTEAPIISYFCSLGCYVNSSDMLK [PPIL5]”, for which the “solubility change mitosis (log2)” value with HeLa Kyoto [1] is -0.0159. In the data set with HeLa Kyoto [2], the “solubility in G1/S (log2)” value was -0.0487.

For “MKRHRPVSSSDSSDESPSTSFTSGSMYRIKSKIPNEHKKPAEVFRKDLISAMKLPDSHHINPDSYYLFADTWKEEWEKGVQVPASPDTVPQPSLRIIAEKVKDVLFIRPRKYIHCSSPDTTEPGYINIMELAASVCRYDLDDMDIFWLQELNEDLAEMGCGPVDENLMEKTVEVLERHCHENMNHAIETEEGLGIEYDEDVICDVCRSPDSEEGNDMVFCDKCNVCVHQACYGILKVPEGSWLCRSCVLGIYPQCVLCPKKGGALKTTKTGTKWAHVSCALWIPEVSIACPERMEPITKISHIPPSRWALVCNLCKLKTGACIQCSIKSCITAFHVTCAFEHGLEMKTILDEGDEVKFKSYCLKHSQNRQKLGEAEYPHHRAKEQSQAKSEKTSLRAQKLRELEEEFYSLVRVEDVAAELGMPTLAVDFIYNYWKLKRKSNFNKPLFPPKEDEENGLVQPKEESIHTRMRMFMHLRQDLERVRNLCYMISRREKLKLSHNKIQEQIFGLQVQLLNQEIDAGLPLTNALENSLFYPPPRITLKLKMPKSTPEDHRNSSTETDQQPHSPDSSSSVHSIRNMQVPQESLEMRTKSYPRYPLESKNNRLLASLSHSRSEAKESSPAWRTPSSECYHGQSLGKPLVLQAALHGQSSIGNGKSQPNSKFAKSNGLEGSWSGNVTQKDSSSEMFCDQEPVFSPHLVSQGSFRKSTVEHFSRSFKETTNRWVKNTEDLQCYVKPTKNMSPKEQFWGRQVLRRSAGRAPYQENDGYCPDLELSDSEAESDGNKEKVRVRKDSSDRENPPHDSRRDCHGKSKTHPLSHSSMQR [JADE3]”, the “solubility change mitosis (log2)” value with HeLa Kyoto [1] is 0.383. The “solubility in G1/S (log2)” value with HeLa Kyoto [2] was -0.949.

With “MKSSGLFPFLVLLALGTLAPWAVEGSGKSFKAGVCPPKKSAQCLRYKKPECQSDWQCPGKKRCCPDTCGIKCLDPVDTPNPTRRKPGKCPVTYGQCLMLNPPNFCEMDGQCKRDLKCCMGMCGKSCVSPVKA [SLPI]”, the “solubility change mitosis (log2)” value in the data set with HeLa Kyoto [1] came out at 0.714. Moreover, the “solubility in G1/S (log2)” value in the data set on HeLa Kyoto [2] was -0.403.

With “MKTSPRRPLILKRRRLPLPVQNAPSETSEEEPKRSPAQQESNQAEASKEVAESNSCKFPAGIKIINHPTMPNTQVVAIPNNANIHSIITALTAKGKESGSSGPNKFILISCGGAPTQPPGLRPQTQTSYDAKRTEVTLETLGPKPAARDVNLPRPPGALCEQKRETCADGEAAGCTINNSLSNIQWLRKMSSDGLGSRSIKQEMEEKENCHLEQRQVKVEEPSRPSASWQNSVSERPPYSYMAMIQFAINSTERKRMTLKDIYTWIEDHFPYFKHIAKPGWKNSIRHNLSLHDMFVRETSANGKVSFWTIHPSANRYLTLDQVFKPLDPGSPQLPEHLESQQKRPNPELRRNMTIKTELPLGARRKMKPLLPRVSSYLVPIQFPVNQSLVLQPSVKVPLPLAASLMSSELARHSKRVRIAPKVLLAEEGIAPLSSAGPGKEEKLLFGEGFSPLLPVQTIKEEEIQPGEEMPHLARPIKVESPPLEEWPSPAPSFKEESSHSWEDSSQSPTPRPKKSYSGLRSPTRCVSEMLVIQHRERRERSRSRRKQHLLPPCVDEPELLFSEGPSTSRWAAELPFPADSSDPASQLSYSQEVGGPFKTPIKETLPISSTPSKSVLPRTPESWRLTPPAKVGGLDFSPVQTSQGASDPLPDPLGLMDLSTTPLQSAPPLESPQRLLSSEPLDLISVPFGNSSPSDIDVPKPGSPEPQVSGLAANRSLTEGLVLDTMNDSLSKILLDISFPGLDEDPLGPDNINWSQFIPELQ [FOXM1]”, in the data set on HeLa Kyoto [1], the “solubility change mitosis (log2)” value was -0.0969. Moreover, the “solubility in G1/S (log2)” value with HeLa Kyoto [2] amounted to 0.114.

With “MKTVLMVAEKPSLAQSIAKILSRGSLSSHKGLNGACSVHEYTGTFAGQPVRFKMTSVCGHVMTLDFLGKYNKWDKVDPAELFSQAPTEKKEANPKLNMVKFLQVEGRGCDYIVLWLDCDKEGENICFEVLDAVLPVMNKAHGGEKTVFRARFSSITDTDICNAMACLGEPDHNEALSVDARQELDLRIGCAFTRFQTKYFQGKYGDLDSSLISFGPCQTPTLGFCVERHDKIQSFKPETYWVLQAKVNTDKDRSLLLDWDRVRVFDREIAQMFLNMTKLEKEAQVEATSRKEKAKQRPLALNTVEMLRVASSSLGMGPQHAMQTAERLYTQGYISYPRTETTHYPENFDLKGSLRQQANHPYWADTVKRLLAEGINRPRKGHDAGDHPPITPMKSATEAELGGDAWRLYEYITRHFIATVSHDCKYLQSTISFRIGPELFTCSGKTVLSPGFTEVMPWQSVPLEESLPTCQRGDAFPVGEVKMLEKQTNPPDYLTEAELITLMEKHGIGTDASIPVHINNICQRNYVTVESGRRLKPTNLGIVLVHGYYKIDAELVLPTIRSAVEKQLNLIAQGKADYRQVLGHTLDVFKRKFHYFVDSIAGMDELMEVSFSPLAATGKPLSRCGKCHRFMKYIQAKPSRLHCSHCDETYTLPQNGTIKLYKELRCPLDDFELVLWSSGSRGKSYPLCPYCYNHPPFRDMKKGMGCNECTHPSCQHSLSMLGIGQCVECESGVLVLDPTSGPKWKVACNKCNVVAHCFENAHRVRVSADTCSVCEAALLDVDFNKAKSPLPGDETQHMGCVFCDPVFQELVELKHAASCHPMHRGGPGRRQGRGRGRARRPPGKPNPRRPKDKMSALAAYFV [TOP3B]”, in the data set on HeLa Kyoto [1], the “solubility change mitosis (log2)” value is 0.0647. For the same sequence, in the data set with HeLa Kyoto [2], the “solubility in G1/S (log2)” value is -0.535.

As to “MLEPQENGVIDLPDYEHVEDETFPPFPPPASPERQDGEGTEPDEESGNGAPVRVPPKRTVKRNIPKLDAQRLISERGLPALRHVFDKAKFKGKGHEAEDLKMLIRHMEHWAHRLFPKLQFEDFIDRVEYLGSKKEVQTCLKRIRLDLPILHEDFVSNNDEVAENNEHDVTSTELDPFLTNLSESEMFASELSRSLTEEQQQRIERNKQLALERRQAKLLSNSQTLGNDMLMNTPRAHTVEEVNTDEDQKEESNGLNEDILDNPCNDAIANTLNEEETLLDQSFKNVQQQLDATSRNITEAR [TIPIN]”, the “solubility change mitosis (log2)” value with HeLa Kyoto [1] came to 0.273. The “solubility in G1/S (log2)” value in the data set with HeLa Kyoto [2] worked out at 0.321.
